By Km is commonly meant the concentration of substrate that gives half-maximal velocity. What is called Vmax is the rate approached at saturating substrate. As usually defined, the kcat is the maximal rate divided by the concentration of active sites. For orientation: kcat/Km means the second-order rate constant that governs catalysis at low substrate concentration.

What all share (type): biochemical, Entamoeba histolytica
Series [1] concerns recombinant EhPanK. Briefly: Regulation of EhPanK by CoA, acetyl CoA and malonyl CoA (double-reciprocal plots). The note with it: inhibitor 0, 0.5, 2 mM; for Mechanism of inhibition with respect to ATP: various ATP, 0.2 mM pantothenate; for Mechanism of inhibition with respect to pantothenate: various pantothenate, 100 μM ATP. The text has this:
PanK from other organisms was reported to be negatively regulated by allosteric inhibition with CoA, acetyl CoA, and malonyl CoA ([Calder et al., 1999]; [Takagi et al., 2010]; [Vallari et al., 1987]). […] The mechanisms of inhibition by acetyl CoA were not clear but seemed to be the mixed type with respect to ATP and pantothenate (Fig. 3).
Fig. 2 Effect of CoA, acetyl CoA, and malonyl CoA on the pantothenate kinase activities. Relative activities of EhPanK in the presence of various concentrations of inhibitors to those without inhibitors are shown. […] The assays were carried out three times independently, and the results are shown as means ± SEM of triplicates.
Fig. 3 Double-reciprocal plots of the recombinant EhPanK in the presence of CoA (A and B), malonyl CoA (C and D), or acetyl CoA (E and F). The enzymatic activities were determined with various concentrations of ATP and 0.2 mM pantothenate (A, C, and E) or various concentrations of pantothenate and 100 μM ATP (B, D, and F), in the presence of three concentrations of inhibitors (0, 0.5, and 2 mM). Data are shown in means ± SEM of triplicate analyses.

Substrate in series [2]: CC(C)(CO)[C@@H](O)C(=O)NCCC(=O)O
Briefly: Kinetic parameters of recombinant EhPanK for its substrates. The note with it: other: apparent Km at saturating concentration of the other substrate, 37 °C, pH 6, mean ± SEM. As to the method: (§1) PanK and DPCK activities in the cell lysate were measured with coupled assays using ADP Hunter™ Plus Assay kit (DiscoverX, US) according to the manufacturer's instructions. […] Kinetic data were estimated by curve fitting with the Michaelis–Menten equation using GraphPad Prism (GraphPad Software Inc., San Diego, USA). This experiment was repeated three times in triplicate with proteins isolated from two independent extractions, and kinetic values are presented as the means ± S.E. for three independent kinetic assays.
(§2) Table 1 summarizes the apparent Km, Vmax, and Kcat values for EhPanK using pantothenate and ATP as substrates.
(§3) Fig. S5. Optimum pH and temperature (A) and initial rate plots (B, C) of EhPanK. B) The velocity of EhPanK reaction at various pantothenate concentrations in the presence of 25, 50, or 100 μM ATP. C). The velocity of EhPanK reaction at various ATP concentrations in the presence of 8, 64, or 128 μM pantothenate. […] Assays for panes B and C were conducted at 37 °C at pH 6. Data are shown in mean ± SEM of three replicates.

Substrate in series [3]: Nc1ncnc2c1ncn2[C@@H]1O[C@H](COP(=O)(O)OP(=O)(O)OP(=O)(O)O)[C@@H](O)[C@H]1O
The series is described as above. The note with it: other: apparent Km at saturating concentration of the other substrate, 37 °C, pH 6, mean ± SEM. As to the method: as §1, §2, §3

Consider `CC(C)(COP(=O)(O)OP(=O)(O)OC[C@H]1O[C@@H](n2cnc3c(N)ncnc32)[C@H](O)[C@@H]1OP(=O)(O)O)[C@@H](O)C(=O)NCCC(=O)NCCS` [CoA, Coenzyme A], for which, in series [1], the “Mechanism of inhibition with respect to ATP” value is recorded as “competitive” and the “Mechanism of inhibition with respect to pantothenate” value is recorded as “uncompetitive”.
The matching figures for `CC(=O)SCCNC(=O)CCNC(=O)[C@H](O)C(C)(C)COP(=O)(O)OP(=O)(O)OC[C@H]1O[C@@H](n2cnc3c(N)ncnc32)[C@H](O)[C@@H]1OP(=O)(O)O` [acetyl CoA]: “mixed type” and “mixed type”.
Turning to `CC(C)(COP(=O)(O)OP(=O)(O)OC[C@H]1O[C@@H](n2cnc3c(N)ncnc32)[C@H](O)[C@@H]1OP(=O)(O)O)[C@@H](O)C(=O)NCCC(=O)NCCSC(=O)CC(=O)O` [malonyl CoA], in series [1], the “Mechanism of inhibition with respect to ATP” value is listed as “competitive” and the “Mechanism of inhibition with respect to pantothenate” value is “non-competitive”.

B1: E. histolytica pantothenate kinase (Entamoeba histolytica HM-1:IMSS) (protein)
chain: MSQPSHSIPSKHSVLSNEDIEHDDHITHTFEQYEFTKTQSPLPLNGVRRRTAPLSADMGGTMTKIVFWIPGDTDIDLPKYVEPEESVMSGFDLYPDPVLKVTMNSKGENELCFMKFPTSQIPEFIHYAKTSKLKEIYGIGNLQILNVTGGGAYKFANLLKDEMDLEVRQQDEMRCLVLGVNFLLLCCQEKLCFRFVNKTKLYREVTPEIFPYLLVNVGSGVSILKVTAPEKYERVSGSLIGGGTFWGLCCLLTNYKSFDEMLQAAQYGQHQNVDLYVKDIYGRCYDSVGLAADMMASSFGKIQKVPCGEAKNHYSEADIAQGLMMMVCGSIAHLGFELTKLHHINRIFYTGGFVAHNPVVWEAITTMLTTWSSGSVDANFLEYDGYFGSIGALLLSEYEEELM
On to B1, for which, in series [2], the Km came to 53.2 ± 7.1 µM, the Vmax stood at 2.79 µmol/min/mg, the kcat was 2.11 ± 0.075 s⁻¹ and the kcat/Km came out at 39700 ± 1330 M⁻¹ s⁻¹. Also, in series [3], the Michaelis constant (Km) amounted to 41.4 ± 3.9 µM, the Vmax worked out at 2.84 µmol/min/mg, the kcat came out at 2.15 ± 0.153 s⁻¹ and the specificity constant (kcat/Km) came out at 51800 ± 3670 M⁻¹ s⁻¹.

(Values after PMC6114107, “Characterization and validation of Entamoeba histolytica pantothenate kinase as a novel anti-amebic drug target” (International Journal for Parasitology: Drugs and Drug …, 2018).)
